Source: patent publication US20240417476A1 (ATYR PHARMA, published 2024)
Read-outs that look alike come from different tables or passages of the source.

B1: CCR7, full coding sequence, in pBiT1.1-C with C-terminal split NanoLuc tag, expressed in Expi293F cells (receptor)
chain: QDEVTDDYIGDNTTVDYTLFESLCSKKDVRNFKAWFLPIMYSIICFVGLLGNGLVVLTYIYFKRLKTMTDTYLLNLAVADILFLLTLPFWAYSAAKSWVFGVHFCKLIFAIYKMSFFSGMLLLLCISIDRYVAIVQAVSAHRHRARVLLISKLSCVGIWILATVLSIPELLYSDLQRSSSEQAMRCSLITEHVEAFITIQVAQMVIGFLVPLLAMSFCYLVIIRTLLQARNFERNKAIKVIIAVVVVFIVFQLPYNGVVLAQTVANFNITSSTCELSKQLNIAYDVTYSLACVRCCVNPFLYAFIGVKFRNDLFKLFKDLGCLSQEQLRQWSSCRHIRRSSMSVEAETTTTFSP
notes: cDNA Genscript OHu24012; not shown: vector-encoded spacer and large split NanoLuc fragment (pBiT1.1-C)

What was measured:
[1] = biological target: T1, Human NRP2a v2 (926aa) in pBiT2.1-C with C-terminal split NanoLuc tag, expressed in Expi293 cells (human, UniProt O60462 23-931); assay: NanoBiT split-luciferase complementation of tagged NRP2 and CCR7 in Expi293F cells; 100 nM CCL21 or CCL19 added; normalized to wells without ligand
T1 construct: cDNA Origene RCC220706, isoform 2; also called pBiT2.1-C-NRP2v2 (isoform 2); NRP2 v2; not shown: vector-encoded spacer and small split NanoLuc fragment (pBiT2.1-C)

[2] = biological target: T2, Human NRP2a v1 (931aa) with C-terminal split NanoLuc tag, expressed in Expi293F cells (human, UniProt O60462 23-931); assay: as above
T2 construct: Made by mutagenesis from the isoform 2 / isoform 5 vectors; not shown: vector-encoded spacer and split NanoLuc fragment (Promega pBiT vector)

[3] = biological target: T1, Human NRP2a v2 (926aa) in pBiT2.1-C …; assay: NanoBiT complementation of NRP2a v2 and CCR7 truncated after aa331 in Expi293 cells; 100 nM CCL21; normalized to wells without ligand
[4] = biological target: B1; assay: NanoBiT split-luciferase complementation of tagged NRP2 and CCR7 in Expi293F cells; normalized to wells without ligand
[5] = biological target: B1; assay: as above; remark: listed apart in the source

Q: Does B1 bind [1]?
A: binds

Q: Does B1 bind [2]?
A: binds

B2: CCR7 truncated after aa331 (without its C-terminal cytoplasmic sequence) in pBiT1.1-C with split NanoLuc tag, expressed in Expi293 cells (receptor)
chain: QDEVTDDYIGDNTTVDYTLFESLCSKKDVRNFKAWFLPIMYSIICFVGLLGNGLVVLTYIYFKRLKTMTDTYLLNLAVADILFLLTLPFWAYSAAKSWVFGVHFCKLIFAIYKMSFFSGMLLLLCISIDRYVAIVQAVSAHRHRARVLLISKLSCVGIWILATVLSIPELLYSDLQRSSSEQAMRCSLITEHVEAFITIQVAQMVIGFLVPLLAMSFCYLVIIRTLLQARNFERNKAIKVIIAVVVVFIVFQLPYNGVVLAQTVANFNITSSTCELSKQLNIAYDVTYSLACVRCCVNPFLYAFIGV
notes: Membrane protein on cells, cytoplasmic tail removed; not shown: vector-encoded spacer and large split NanoLuc fragment (pBiT1.1-C)
Q: Does B2 bind [3]?
A: binds

B3: Human NRP2b v4 (906aa) with C-terminal split NanoLuc tag, expressed in Expi293F cells (receptor)
chain: QPDPPCGGRLNSKDAGYITSPGYPQDYPSHQNCEWIVYAPEPNQKIVLNFNPHFEIEKHDCKYDFIEIRDGDSESADLLGKHCGNIAPPTIISSGSMLYIKFTSDYARQGAGFSLRYEIFKTGSEDCSKNFTSPNGTIESPGFPEKYPHNLDCTFTILAKPKMEIILQFLIFDLEHDPLQVGEGDCKYDWLDIWDGIPHVGPLIGKYCGTKTPSELRSSTGILSLTFHTDMAVAKDGFSARYYLVHQEPLENFQCNVPLGMESGRIANEQISASSTYSDGRWTPQQSRLHGDDNGWTPNLDSNKEYLQVDLRFLTMLTAIATQGAISRETQNGYYVKSYKLEVSTNGEDWMVYRHGKNHKVFQANNDATEVVLNKLHAPLLTRFVRIRPQTWHSGIALRLELFGCRVTDAPCSNMLGMLSGLIADSQISASSTQEYLWSPSAARLVSSRSGWFPRIPQAQPGEEWLQVDLGTPKTVKGVIIQGARGGDSITAVEARAFVRKFKVSYSLNGKDWEYIQDPRTQQPKLFEGNMHYDTPDIRRFDPIPAQYVRVYPERWSPAGIGMRLEVLGCDWTDSKPTVETLGPTVKSEETTTPYPTEEEATECGENCSFEDDKDLQLPSGFNCNFDFLEEPCGWMYDHAKWLRTTWASSSSPNDRTFPDDRNFLRLQSDSQREGQYARLISPPVHLPRSPVCMEFQYQATGGRGVALQVVREASQESKLLWVIREDQGGEWKHGRIILPSYDMEYQIVFEGVIGKGRSGEIAIDDIRISTDVPLENCMEPISAFAGENFKGGTLLPGTEPTVDTVPMQPIPAYWYYVMAAGGAVLVLVSVALALVLHYHRFRYAAKKTDHSITYKTSHYTNGAPLAVEPTLTIKLEQDRGSHC
notes: not shown: vector-encoded spacer and split NanoLuc fragment
Q: Does B3 bind [4]?
A: no binding (tested: 100 nM CCL21 or CCL19 (from the text))

B4: Human NRP2b v5 with C-terminal split NanoLuc tag, expressed in Expi293F cells (receptor)
chain: QPDPPCGGRLNSKDAGYITSPGYPQDYPSHQNCEWIVYAPEPNQKIVLNFNPHFEIEKHDCKYDFIEIRDGDSESADLLGKHCGNIAPPTIISSGSMLYIKFTSDYARQGAGFSLRYEIFKTGSEDCSKNFTSPNGTIESPGFPEKYPHNLDCTFTILAKPKMEIILQFLIFDLEHDPLQVGEGDCKYDWLDIWDGIPHVGPLIGKYCGTKTPSELRSSTGILSLTFHTDMAVAKDGFSARYYLVHQEPLENFQCNVPLGMESGRIANEQISASSTYSDGRWTPQQSRLHGDDNGWTPNLDSNKEYLQVDLRFLTMLTAIATQGAISRETQNGYYVKSYKLEVSTNGEDWMVYRHGKNHKVFQANNDATEVVLNKLHAPLLTRFVRIRPQTWHSGIALRLELFGCRVTDAPCSNMLGMLSGLIADSQISASSTQEYLWSPSAARLVSSRSGWFPRIPQAQPGEEWLQVDLGTPKTVKGVIIQGARGGDSITAVEARAFVRKFKVSYSLNGKDWEYIQDPRTQQPKLFEGNMHYDTPDIRRFDPIPAQYVRVYPERWSPAGIGMRLEVLGCDWTDSKPTVETLGPTVKSEETTTPYPTEEEATECGENCSFEDDKDLQLPSGFNCNFDFLEEPCGWMYDHAKWLRTTWASSSSPNDRTFPDDRNFLRLQSDSQREGQYARLISPPVHLPRSPVCMEFQYQATGGRGVALQVVREASQESKLLWVIREDQGGEWKHGRIILPSYDMEYQIVFEGVIGKGRSGEIAIDDIRISTDVPLENCMEPISAFAGGTLLPGTEPTVDTVPMQPIPAYWYYVMAAGGAVLVLVSVALALVLHYHRFRYAAKKTDHSITYKTSHYTNGAPLAVEPTLTIKLEQDRGSHC
notes: cDNA Origene RC210928, isoform 5; not shown: vector-encoded spacer and split NanoLuc fragment
Q: Does B4 bind [5]?
A: no binding (tested: 100 nM CCL21 or CCL19 (from the text))
